Measured values: PMC11189301, “Structure of the human outer kinetochore KMN network complex” (Nature Structural & Molecular Biology, 2024)

Tests used:
[1] = target: T1, MIS12C (WT) (Homo sapiens, UniProt Q6P1K2+Q96IY1+Q9H081+Q9H410); test: Isothermal titration calorimetry (ITC), peptide titrated into wild-type MIS12C; assay type: binding; details: 20 °C, 20 mM HEPES pH 7.5, 100 mM NaCl, 1 mM TCEP, syringe Dsn1^92-113 W96A/R97A/R98A 1.0 mM, cell MIS12C(WT) 0.089 mM, listed as Dsn1^92–113 peptide with three Ala residues
T1 construct: TEV-cleavable double Strep II (DS) tag (C); made in house; host or cells: High-5 insect cells (baculovirus)

[2] = target: T2, MIS12 complex (Mis12, Pmf1, Dsn1, Nsl1), wild type, full length (Homo sapiens, UniProt Q9H081 1-205; Q6P1K2 1-205; Q9H410 1-356; Q96IY1 1-281); test: cryo-EM structure; NDC80C, MIS12C and KNL1C mixed 1:1:1 and run on Superose 6 in 20 mM HEPES pH 8.0, 80 mM NaCl, 1 mM MgCl2, 1 mM TCEP; about 1 mg/ml on UltrAuFoil grids; 3.0 Å (MIS12C heads 3.8 Å); details: both partners purified
T2 construct: Mis12, subunit of human MIS12C; Pmf1, subunit of human MIS12C; Dsn1, subunit of human MIS12C; Nsl1, subunit of human MIS12C; The DS tag on Pmf1 is TEV cleavable; a cleavage is not described; also called MIS12C (WT); wild-type MIS12C; source: High-5 insect cells (baculovirus), purified (Strep-Tactin, Resource S, Superdex 200); copies: + + +
T2 sequence (looked up) 1: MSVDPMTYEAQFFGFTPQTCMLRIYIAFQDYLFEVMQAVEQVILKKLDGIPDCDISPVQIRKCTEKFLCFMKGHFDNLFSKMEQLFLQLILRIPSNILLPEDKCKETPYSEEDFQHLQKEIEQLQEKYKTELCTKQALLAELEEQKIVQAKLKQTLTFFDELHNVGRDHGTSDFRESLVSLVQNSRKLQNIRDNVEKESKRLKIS
T2 sequence (looked up) 2: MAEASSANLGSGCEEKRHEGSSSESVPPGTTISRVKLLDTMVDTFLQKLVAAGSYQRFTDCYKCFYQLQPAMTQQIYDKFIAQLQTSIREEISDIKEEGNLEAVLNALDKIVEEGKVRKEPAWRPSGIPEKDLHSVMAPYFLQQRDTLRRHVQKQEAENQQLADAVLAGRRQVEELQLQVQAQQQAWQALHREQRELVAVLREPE
T2 sequence (looked up) 3: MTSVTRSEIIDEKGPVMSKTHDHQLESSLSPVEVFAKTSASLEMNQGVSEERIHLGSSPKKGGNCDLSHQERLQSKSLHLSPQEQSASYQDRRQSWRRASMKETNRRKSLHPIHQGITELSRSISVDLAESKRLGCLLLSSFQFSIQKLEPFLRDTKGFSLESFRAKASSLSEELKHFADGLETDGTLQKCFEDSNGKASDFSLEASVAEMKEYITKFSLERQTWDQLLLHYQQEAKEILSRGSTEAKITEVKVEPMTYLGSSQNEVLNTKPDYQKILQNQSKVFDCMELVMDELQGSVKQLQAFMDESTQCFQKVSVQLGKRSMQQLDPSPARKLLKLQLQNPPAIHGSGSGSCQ
T2 sequence (looked up) 4: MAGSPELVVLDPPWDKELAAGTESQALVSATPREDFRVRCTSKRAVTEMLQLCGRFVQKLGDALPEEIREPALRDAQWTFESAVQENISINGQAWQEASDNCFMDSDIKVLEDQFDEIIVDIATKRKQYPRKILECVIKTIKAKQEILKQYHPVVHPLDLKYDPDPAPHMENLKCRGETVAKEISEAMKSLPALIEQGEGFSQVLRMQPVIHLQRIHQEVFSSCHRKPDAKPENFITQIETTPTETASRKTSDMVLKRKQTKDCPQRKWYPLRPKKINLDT

[3] = target: MIS12 complex with Dsn1 residues 6–113 deleted (Homo sapiens, UniProt Q9H081 1-205; Q6P1K2 1-205; Q9H410 1-356; Q96IY1 1-281, 6–113 residues deleted); test: ITC
[4] = target: T3, MIS12 complex (Mis12, Pmf1, Dsn1, Nsl1), wild type, full length (Homo sapiens, UniProt Q9H081 1-205; Q6P1K2 1-205; Q9H410 1-356; Q96IY1 1-281); test: ITC
T3 chain 1: T2 sequence (looked up) 1
T3 chain 2: T2 sequence (looked up) 2
T3 chain 3: T2 sequence (looked up) 3
T3 chain 4: T2 sequence (looked up) 4

[5] = target: T2, MIS12 complex (Mis12, Pmf1, Dsn1, …); test: ITC; peptide in the syringe titrated into the MIS12C variant in the cell; 20 °C; 20 mM HEPES pH 7.5, 100 mM NaCl, 1 mM TCEP; single-site binding model; duplicate or triplicate; details: both partners purified
[6] = target: T4, MIS12 complex with Dsn1 residues 6–113 deleted (Homo sapiens, UniProt Q9H081 1-205; Q6P1K2 1-205; Q9H410 1-356; Q96IY1 1-281, 6–113 residues deleted); test: as above; details: both partners purified
T4 construct: Mis12, subunit of human MIS12C; Pmf1, subunit of human MIS12C; Nsl1, subunit of human MIS12C; also called MIS12C^Dsn1ΔN; MIS12C^ΔN-Dsn1; source: High-5 insect cells (baculovirus), purified (Strep-Tactin, Resource S, Superdex 200); copies: + + +
T4 sequence (looked up) 1: T2 sequence (looked up) 1
T4 sequence (looked up) 2: T2 sequence (looked up) 2
T4 sequence (looked up) 3: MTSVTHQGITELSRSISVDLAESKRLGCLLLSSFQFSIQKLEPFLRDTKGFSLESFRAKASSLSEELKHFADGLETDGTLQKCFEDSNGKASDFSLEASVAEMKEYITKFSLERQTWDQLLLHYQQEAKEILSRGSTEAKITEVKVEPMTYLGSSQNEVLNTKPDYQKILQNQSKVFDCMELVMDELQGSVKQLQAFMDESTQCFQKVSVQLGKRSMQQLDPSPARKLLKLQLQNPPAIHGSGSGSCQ
T4 sequence (looked up) 4: T2 sequence (looked up) 4

[7] = target: T2, MIS12 complex (Mis12, Pmf1, Dsn1, …); test: SEC; MIS12C or MIS12C^Nsl1ΔC mixed with Knl1 2131–2337 or its mutants at 4 µM each; 20 mM HEPES pH 7.8, 150 mM NaCl, 0.5 mM TCEP; Superose 6; fractions on SDS-PAGE; details: both partners purified
[8] = target: T5, MIS12 complex with Nsl1 truncated at the C terminus (Nsl1 1–264; residues 265–281 deleted) (Homo sapiens, UniProt Q9H081 1-205; Q6P1K2 1-205; Q9H410 1-356; Q96IY1 1-264); test: as above; details: both partners purified
T5 construct: Mis12, subunit of human MIS12C; Pmf1, subunit of human MIS12C; Dsn1, subunit of human MIS12C; Nsl1, subunit of human MIS12C, residues 1-264; also called MIS12C^Nsl1ΔC; Nsl^1–264; source: High-5 insect cells (baculovirus), purified (Strep-Tactin, Resource S, Superdex 200); copies: + + +
T5 sequence (looked up) 1: T2 sequence (looked up) 1
T5 sequence (looked up) 2: T2 sequence (looked up) 2
T5 sequence (looked up) 3: T2 sequence (looked up) 3
T5 sequence (looked up) 4: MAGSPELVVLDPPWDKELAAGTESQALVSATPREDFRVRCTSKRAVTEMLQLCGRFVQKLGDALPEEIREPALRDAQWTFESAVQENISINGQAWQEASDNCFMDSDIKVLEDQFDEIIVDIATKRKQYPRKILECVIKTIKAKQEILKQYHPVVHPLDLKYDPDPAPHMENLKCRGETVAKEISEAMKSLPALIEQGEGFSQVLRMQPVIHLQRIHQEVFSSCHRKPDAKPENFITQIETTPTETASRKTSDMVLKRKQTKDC

In the case of “RRQSAAAASMKETNRRKSLHPI-AW [Dsn1^92–113 W96A R97A R98A, Dsn1^92–113 peptide with WRR linchpin substituted by three Ala residues]”, the “Kd / interaction of mutant Dsn1^92–113 peptide, in words” value [1] is reported as “completely abolished”.

B1: KNL1 complex (Knl1 residues 1870–2342 with ZWINT) (complex, human)
chain 1: QMESQFLRDTICEESLREKLQDGRITIREFFILLQVHILIQKPRQSNLPGNFTVNTPPTPEDLMLSQYVYRPKIQIYREDCEARRQKIEELKLSASNQDKLLVDINKNLWEKMRHCSDKELKAFGIYLNKIKSCFTKMTKVFTHQGKVALYGKLVQSAQNEREKLQIKIDEMDKILKKIDNCLTEMETETKNLEDEEKNNPVEEWDSEMRAAEKELEQLKTEEEELQRNLLELEVQKEQTLAQIDFMQKQRNRTEELLDQLSLSEWDVVEWSDDQAVFTFVYDTIQLTITFEESVVGFPFLDKRYRKIVDVNFQSLLDEDQAPPSSLLVHKLIFQYVEEKESWKKTCTTQHQLPKMLEEFSLVVHHCRLLGEEIEYLKRWGPNYNLMNIDINNNELRLLFSSSAAFAKFEITLFLSAYYPSVPLPSTIQNHVGNTSQDDIATILSKVPLENNYLKNVVKQIYQDLFQDCHFYH
chain 2: MEAAETEAEAAALEVLAEVAGILEPVGLQEEAELPAKILVEFVVDSQKKDKLLCSQLQVADFLQNILAQEDTAKGLDPLASEDTSRQKAIAAKEQWKELKATYREHVEAIKIGLTKALTQMEEAQRKRTQLREAFEQLQAKKQMAMEKRRAVQNQWQLQQEKHLQHLAEVSAEVRERKTGTQQELDRVFQKLGNLKQQAEQERDKLQRYQTFLQLLYTLQGKLLFPEAEAEAENLPDDKPQQPTRPQEQSTGDTMGRDPGVSFKAVGLQPAGDVNLP
notes: Knl1, human, 2,342-residue protein, residues 1870-2342; ZWINT, human, constitutive partner of Knl1; Amplified from cDNA; also called Knl1–ZWINT; source: High-5 insect cells (baculovirus), purified (His-tag column, Resource Q)
B1: binds [2].

B2: Dsn1^92–113 auto-inhibitory peptide, wild type (peptide)
peptide: Ac-RRQSWRRASMKETNRRKSLHPIAW-NH2
notes: Ala-Trp added for determination of concentration by absorption at 280 nm; source: synthetic peptide (Cambridge Research Biochemicals)
In the case of B2, the Kd [3] is reported as 4.89 µM, the Kd [4] is reported as 214 µM and the binding result [5] is reported as “binds”. For the same molecule, the “fold increase in binding against wild-type MIS12C” value [6] was 44 fold.

B3: Knl1 RWD domains, residues 2131–2337, wild type (domain or fragment, H. sapiens, UniProt Q8NG31 2131-2337, looked up)
chain: SLSEWDVVEWSDDQAVFTFVYDTIQLTITFEESVVGFPFLDKRYRKIVDVNFQSLLDEDQAPPSSLLVHKLIFQYVEEKESWKKTCTTQHQLPKMLEEFSLVVHHCRLLGEEIEYLKRWGPNYNLMNIDINNNELRLLFSSSAAFAKFEITLFLSAYYPSVPLPSTIQNHVGNTSQDDIATILSKVPLENNYLKNVVKQIYQDLFQD
notes: Knl1, human, residues 2131-2337 (tandem RWD domains); also called Knl1^2131–2337; wild-type KNL1; source: E. coli BL21 (DE3), purified (Ni-NTA, reverse IMAC, Superdex 75); not shown: His6, N-terminal, cleaved
B3: binds [7]; binds [8].
